Data taken from patent publication US20200079833A1 (AstraZeneca / MedImmune, published 2020).
Starred links: 1 amine or outer side, 2 acyl side, 3 side chain; linkers in the order of their positions; H or OH if unused. Non-standard residues stand in square brackets, D forms with d. Groups on a side chain read outwards from the residue. Primed or numbered codes have the meaning given here. No end group written: not given here. *: point of attachment. γGlu = O=C(O)[C@H](CCC(=O)[*:2])N[*:1]; Stearoyl = CCCCCCCCCCCCCCCCCC(=O)*; αMeF = C[C@](N)(Cc1ccccc1)C(=O)O; αMeK = C[C@](N)(CCCCN)C(=O)O; Lauroyl = CCCCCCCCCCCC(=O)*; αMeS = C[C@](N)(CO)C(=O)O; PEG2′ = not defined here; Aib = CC(C)(N)C(=O)O

T1: glucose-dependent insulinotropic peptide (gastric inhibitory polypeptide) receptor (GIPR) (human, UniProt P48546 22-466)
T1 sequence (looked up): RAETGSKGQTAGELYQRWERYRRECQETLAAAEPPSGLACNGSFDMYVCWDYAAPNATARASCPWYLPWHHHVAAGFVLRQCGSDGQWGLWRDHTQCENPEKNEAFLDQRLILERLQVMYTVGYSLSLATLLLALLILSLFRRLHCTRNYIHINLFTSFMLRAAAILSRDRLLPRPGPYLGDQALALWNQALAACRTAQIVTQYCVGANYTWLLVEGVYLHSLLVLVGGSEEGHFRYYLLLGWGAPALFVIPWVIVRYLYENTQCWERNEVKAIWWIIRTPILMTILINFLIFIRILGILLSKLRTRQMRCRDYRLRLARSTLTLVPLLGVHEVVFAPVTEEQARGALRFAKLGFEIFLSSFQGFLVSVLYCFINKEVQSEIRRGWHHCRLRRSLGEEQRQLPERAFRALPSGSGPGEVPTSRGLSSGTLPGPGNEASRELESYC


Columns and labels:
Experiment in all cases: cell-based or functional assay
GLP-1 receptor (GLP-1R) = GLP-1 receptor (GLP-1R) (human, UniProt P43220 24-463)
glucagon receptor (GCGR) = glucagon receptor (GCGR) (human, UniProt P47871 26-477)
glucagon receptor (GCGR), sequence (P47871 26-477): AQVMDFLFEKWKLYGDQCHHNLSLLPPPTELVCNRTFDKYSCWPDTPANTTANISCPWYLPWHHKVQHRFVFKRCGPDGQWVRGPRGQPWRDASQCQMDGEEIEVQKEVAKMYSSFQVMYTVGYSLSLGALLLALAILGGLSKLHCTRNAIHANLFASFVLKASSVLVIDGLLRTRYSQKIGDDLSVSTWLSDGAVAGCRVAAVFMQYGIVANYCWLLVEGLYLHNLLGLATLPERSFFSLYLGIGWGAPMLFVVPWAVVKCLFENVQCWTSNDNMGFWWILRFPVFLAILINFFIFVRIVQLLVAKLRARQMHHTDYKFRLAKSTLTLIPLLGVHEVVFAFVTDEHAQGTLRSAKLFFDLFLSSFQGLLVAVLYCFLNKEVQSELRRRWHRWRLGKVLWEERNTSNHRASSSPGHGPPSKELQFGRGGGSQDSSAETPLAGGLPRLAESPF

[1] = target: T1, glucose-dependent insulinotropic …

Binder	cAMP Mean pM GLP-1R (GLP-1 receptor (GLP-1R)) [pM]	cAMP Primary assay EC50 GLP-1R n1 (GLP-1 receptor (GLP-1R)) [nM]	cAMP Primary assay EC50 GLP-1R n2 (GLP-1 receptor (GLP-1R)) [nM]	cAMP Primary assay EC50 Gluc-R (glucagon receptor (GCGR)) [nM]	cAMP Primary assay EC50 Gluc-R (2nd) (glucagon receptor (GCGR)) [nM]	cAMP Primary assay EC50 GIP-R [1] [nM]	cAMP Primary assay EC50 GIP-R (2nd) [1] [nM]
H[Aib]EGS[αMeF]TK([PEG2′-PEG2′-γGlu-Stearoyl])DV[αMeS]S[αMeF]LEGEAA[αMeK]E[αMeF]IA[αMeF]VV[αMeK]GG-NH2 [SEQ ID NO 121]	25100	25	25.1	25	25.1	25	25.1
H[Aib]EGK([PEG2′-PEG2′-γGlu-Stearoyl])[αMeF]TSDV[αMeS]S[αMeF]LEGEAA[αMeK]E[αMeF]IA[αMeF]VV[αMeK]GG-NH2 [SEQ ID NO 124]	25100	25	25.1	25	25.1	25	25.1
H[Aib]EGSK([PEG2′-PEG2′-γGlu-Stearoyl])TSDV[αMeS]S[αMeF]LEGEAA[αMeK]E[αMeF]IA[αMeF]VV[αMeK]GG-NH2 [SEQ ID NO 123]	4660	4.9	4.43	26	25.6	26	25.6
H[Aib]EGS[αMeF]K([PEG2′-PEG2′-γGlu-Stearoyl])SDV[αMeS]S[αMeF]LEGEAA[αMeK]E[αMeF]IA[αMeF]VV[αMeK]GG-NH2 [SEQ ID NO 122]	25200	25	25.2	25	25.2	25	25.2
H[Aib]EGS[αMeF]TSK([PEG2′-PEG2′-γGlu-Stearoyl])V[αMeS]S[αMeF]LEGEAA[αMeK]E[αMeF]IA[αMeF]VV[αMeK]GG-NH2 [SEQ ID NO 120]	3640	4.1	3.13	25	25.3	25	25.3

Other lines, results leading:

cAMP Mean pM GLP-1R (GLP-1 receptor (GLP-1R)) [pM]	cAMP Primary assay EC50 GLP-1R n1 (GLP-1 receptor (GLP-1R)) [nM]	cAMP Primary assay EC50 GLP-1R n2 (GLP-1 receptor (GLP-1R)) [nM]	cAMP Primary assay EC50 Gluc-R (glucagon receptor (GCGR)) [nM]	cAMP Primary assay EC50 Gluc-R (2nd) (glucagon receptor (GCGR)) [nM]	cAMP Primary assay EC50 GIP-R [1] [nM]	cAMP Primary assay EC50 GIP-R (2nd) [1] [nM]	Binder
25100	25	25.1	25	25.1	25	25.1	HK([PEG2′-PEG2′-γGlu-Stearoyl])EGS[αMeF]TSDV[αMeS]S[αMeF]LEGEAA[αMeK]E[αMeF]IA[αMeF]VV[αMeK]GG-NH2 [SEQ ID NO 127]
11.5	0.012	0.011	27	27	27	27	H[Aib]EGS[αMeF]TSDV[αMeS]S[αMeF]LEGEAAK([γGlu-γGlu-Lauroyl])E[αMeF]IA[αMeF]VV[αMeK]GG-NH2 (N-terminus assumed; SMILES CCCCCCCCCCCC(=O)N[C@@H](CCC(=O)N[C@@H](CCC(=O)NCCCC[C@H](NC(=O)[C@H](C)NC(=O)[C@H](C)NC(=O)[C@H](CCC(=O)O)NC(=O)CNC(=O)[C@H](CCC(=O)O)NC(=O)[C@H](CC(C)C)NC(=O)[C@](C)(Cc1ccccc1)NC(=O)[C@H](CO)NC(=O)[C@](C)(CO)NC(=O)[C@@H](NC(=O)[C@H](CC(=O)O)NC(=O)[C@H](CO)NC(=O)[C@@H](NC(=O)[C@](C)(Cc1ccccc1)NC(=O)[C@H](CO)NC(=O)CNC(=O)[C@H](CCC(=O)O)NC(=O)C(C)(C)NC(=O)[C@@H](N)Cc1c[nH]cn1)[C@@H](C)O)C(C)C)C(=O)N[C@@H](CCC(=O)O)C(=O)N[C@@](C)(Cc1ccccc1)C(=O)N[C@H](C(=O)N[C@@H](C)C(=O)N[C@@](C)(Cc1ccccc1)C(=O)N[C@H](C(=O)N[C@H](C(=O)N[C@@](C)(CCCCN)C(=O)NCC(=O)NCC(N)=O)C(C)C)C(C)C)[C@@H](C)CC)C(=O)O)C(=O)O) [SEQ ID NO 129]
18.2	0.015	0.021	28	28	28	28	H[Aib]EGS[αMeF]TSDV[αMeS]S[αMeF]LEGEAAK([γGlu-Lauroyl])E[αMeF]IA[αMeF]VV[αMeK]GG-NH2 (N-terminus assumed; SMILES CCCCCCCCCCCC(=O)N[C@@H](CCC(=O)NCCCC[C@H](NC(=O)[C@H](C)NC(=O)[C@H](C)NC(=O)[C@H](CCC(=O)O)NC(=O)CNC(=O)[C@H](CCC(=O)O)NC(=O)[C@H](CC(C)C)NC(=O)[C@](C)(Cc1ccccc1)NC(=O)[C@H](CO)NC(=O)[C@](C)(CO)NC(=O)[C@@H](NC(=O)[C@H](CC(=O)O)NC(=O)[C@H](CO)NC(=O)[C@@H](NC(=O)[C@](C)(Cc1ccccc1)NC(=O)[C@H](CO)NC(=O)CNC(=O)[C@H](CCC(=O)O)NC(=O)C(C)(C)NC(=O)[C@@H](N)Cc1c[nH]cn1)[C@@H](C)O)C(C)C)C(=O)N[C@@H](CCC(=O)O)C(=O)N[C@@](C)(Cc1ccccc1)C(=O)N[C@H](C(=O)N[C@@H](C)C(=O)N[C@@](C)(Cc1ccccc1)C(=O)N[C@H](C(=O)N[C@H](C(=O)N[C@@](C)(CCCCN)C(=O)NCC(=O)NCC(N)=O)C(C)C)C(C)C)[C@@H](C)CC)C(=O)O) [SEQ ID NO 128]
25400	25	25.4	25	25.4	25	25.4	H[Aib]K([PEG2′-PEG2′-γGlu-Stearoyl])GS[αMeF]TSDV[αMeS]S[αMeF]LEGEAA[αMeK]E[αMeF]IA[αMeF]VV[αMeK]GG-NH2 [SEQ ID NO 126]
14.4	0.016	0.013	26	26	26	26	H[Aib]EGS[αMeF]TSDV[αMeS]S[αMeF]LEGEAAK([γGlu-γGlu-γGlu-Lauroyl])E[αMeF]IA[αMeF]VV[αMeK]GG-NH2 (N-terminus assumed; SMILES CCCCCCCCCCCC(=O)N[C@@H](CCC(=O)N[C@@H](CCC(=O)N[C@@H](CCC(=O)NCCCC[C@H](NC(=O)[C@H](C)NC(=O)[C@H](C)NC(=O)[C@H](CCC(=O)O)NC(=O)CNC(=O)[C@H](CCC(=O)O)NC(=O)[C@H](CC(C)C)NC(=O)[C@](C)(Cc1ccccc1)NC(=O)[C@H](CO)NC(=O)[C@](C)(CO)NC(=O)[C@@H](NC(=O)[C@H](CC(=O)O)NC(=O)[C@H](CO)NC(=O)[C@@H](NC(=O)[C@](C)(Cc1ccccc1)NC(=O)[C@H](CO)NC(=O)CNC(=O)[C@H](CCC(=O)O)NC(=O)C(C)(C)NC(=O)[C@@H](N)Cc1c[nH]cn1)[C@@H](C)O)C(C)C)C(=O)N[C@@H](CCC(=O)O)C(=O)N[C@@](C)(Cc1ccccc1)C(=O)N[C@H](C(=O)N[C@@H](C)C(=O)N[C@@](C)(Cc1ccccc1)C(=O)N[C@H](C(=O)N[C@H](C(=O)N[C@@](C)(CCCCN)C(=O)NCC(=O)NCC(N)=O)C(C)C)C(C)C)[C@@H](C)CC)C(=O)O)C(=O)O)C(=O)O) [SEQ ID NO 130]
24900	25	24.9	25	24.9	25	24.9	H[Aib]EK([PEG2′-PEG2′-γGlu-Stearoyl])S[αMeF]TSDV[αMeS]S[αMeF]LEGEAA[αMeK]E[αMeF]IA[αMeF]VV[αMeK]GG-NH2 [SEQ ID NO 125]
